± gives the standard deviation.
Assay: protein stability index of a GFP-peptide fusion (GPS, HEK-293T) (PSI 1-6); higher = more stable
Details: c terminus: a fixed tail appended
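Further: 24-mer peptide tiles fused after GFP, lentivirally expressed, FACS-sorted into six equal bins by GFP/DsRed ratio, decoded by Illumina sequencing, PSI is the read-weighted mean bin number.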

Sequence: DVIGDEICCWSFYGQGRKIAEVCC [KCTD10]
- protein stability index (treatment: DMSO): 2.42 ± 0.92
- protein stability index (treatment: MLN4924 1 uM, 8 h): 2.33 ± 0.54

Sequence: RLVAPTEGSLEWDILEVKRLLDHQ [WDR41]
- protein stability index (treatment: DMSO): 2.67 ± 0.46
- protein stability index (treatment: MLN4924 1 uM, 8 h): 2.77 ± 0.29

Sequence: LEIYQSSQDEPIALDKQHSRDSAA [NOL4L]
- protein stability index (treatment: DMSO): 4.89 ± 0.24
- protein stability index (treatment: MLN4924 1 uM, 8 h): 5.16 ± 0.12

Sequence: ASQHSYPLNRFSSVPLDPMERPMS [CBY2]
- protein stability index (treatment: DMSO): 3.92 ± 0.33
- protein stability index (treatment: MLN4924 1 uM, 8 h): 3.98 ± 0.32

Sequence: PVIPAAALAGYTGSGPIQLWQFLL [ETS1]
- protein stability index (treatment: DMSO): 2.68 ± 0.26
- protein stability index (treatment: MLN4924 1 uM, 8 h): 2.68 ± 0.28

Sequence: DWYQRQRPSEIKDYSPYFKTIEDL [KRT16]
- protein stability index (treatment: DMSO): 2.74 ± 0.28
- protein stability index (treatment: MLN4924 1 uM, 8 h): 2.9 ± 0.32

Sequence: SLMPLQKSISPWKSPPQLRQFLPE [DENND6A]
- protein stability index (treatment: DMSO): 2.72 ± 0.21
- protein stability index (treatment: MLN4924 1 uM, 8 h): 2.51 ± 0.52

Sequence: PGEDENPEKASELSQVELQAAPGA [TRIM55]
- protein stability index (treatment: DMSO): 5.56 ± 0.27
- protein stability index (treatment: MLN4924 1 uM, 8 h): 5.72 ± 0.2

Sequence: NGIGAVLDFTHPKARDWFQGHLRR [MYORG]
- protein stability index (treatment: DMSO): 2.75 ± 0.34
- protein stability index (treatment: MLN4924 1 uM, 8 h): 2.64 ± 0.27

Sequence: LGAEESLGLLDDYLEVAKHFKPHG [ATF4]
- protein stability index (treatment: DMSO): 3.24 ± 0.33
- protein stability index (treatment: MLN4924 1 uM, 8 h): 3.56 ± 0.36

Sequence: DSTMRILSNLVQHILKKYYGNGMR [RTP4]
- protein stability index (treatment: DMSO): 2.45 ± 0.73
- protein stability index (treatment: MLN4924 1 uM, 8 h): 2.46 ± 0.41

Sequence: IEPYITNFFNQVLMLGKTSISDLS [PDS5B]
- protein stability index (treatment: DMSO): 3.01 ± 0.42
- protein stability index (treatment: MLN4924 1 uM, 8 h): 2.91 ± 0.45

Sequence: ARARERERLAHSRAAAAAAVAAAT [KCNA4]
- protein stability index (treatment: DMSO): 4.27 ± 0.24
- protein stability index (treatment: MLN4924 1 uM, 8 h): 4.38 ± 0.13

Sequence: LLGALVLLGLGVLLFSGGLSESET [PBXIP1]
- protein stability index (treatment: DMSO): 2.29 ± 0.77
- protein stability index (treatment: MLN4924 1 uM, 8 h): 2.47 ± 0.89

Sequence: SVFSARDRDPNSLLISCAVSYRGA [TNXB]
- protein stability index (treatment: DMSO): 2.4 ± 0.22
- protein stability index (treatment: MLN4924 1 uM, 8 h): 2.06 ± 0.16

Sequence: EERAAPVLSCEAATQTERRLDLAA [FAM189A2]
- protein stability index (treatment: DMSO): 5.05 ± 0.28
- protein stability index (treatment: MLN4924 1 uM, 8 h): 4.99 ± 0.12

Sequence: EVALDKGCSQFRLAVLDWNQRAMD [SAT2]
- protein stability index (treatment: DMSO): 2.94 ± 0.48
- protein stability index (treatment: MLN4924 1 uM, 8 h): 2.95 ± 0.28

Sequence: SGDCDQRFRFPSPILKVQYHPRDQ [RBBP5]
- protein stability index (treatment: DMSO): 3.8 ± 0.19
- protein stability index (treatment: MLN4924 1 uM, 8 h): 3.74 ± 0.27

Sequence: RESWDSAKKLPPVQESQSERLQAA [ELOA2]
- protein stability index (treatment: DMSO): 5.12 ± 0.17
- protein stability index (treatment: MLN4924 1 uM, 8 h): 5.02 ± 0.086

Sequence: DIELGCSTPLMEAAQEGHLELVKY [ANKRD17]
- protein stability index (treatment: DMSO): 4.03 ± 0.29
- protein stability index (treatment: MLN4924 1 uM, 8 h): 4.18 ± 0.27

Sequence: TCSSCLLRAPTISDLLNDQDLLDV [EDARADD]
- protein stability index (treatment: DMSO): 2.57 ± 0.29
- protein stability index (treatment: MLN4924 1 uM, 8 h): 2.56 ± 0.43

Sequence: STAKKEDINLSVRKLLNRHNIVFG [TRIP13]
- protein stability index (treatment: DMSO): 2.5 ± 0.27
- protein stability index (treatment: MLN4924 1 uM, 8 h): 2.61 ± 0.24

Sequence: RFPLMTPQELINYVQTVDFMRTDN [KLHL13]
- protein stability index (treatment: DMSO): 2.71 ± 0.26
- protein stability index (treatment: MLN4924 1 uM, 8 h): 2.83 ± 0.34

Sequence: FISVFSNLLESKADGIEVSYNACG [ZER1]
- protein stability index (treatment: DMSO): 2.3 ± 0.49
- protein stability index (treatment: MLN4924 1 uM, 8 h): 2.17 ± 0.17

Sequence: TRHLKRLALMIQSSGNTVLLLILC [TMEM192]
- protein stability index (treatment: DMSO): 2.55 ± 0.41
- protein stability index (treatment: MLN4924 1 uM, 8 h): 2.35 ± 0.29

Sequence: SSLVWLFSQLYLYSFISLFIYMVL [MCOLN1]
- protein stability index (treatment: DMSO): 3.02 ± 0.19
- protein stability index (treatment: MLN4924 1 uM, 8 h): 3.03 ± 0.68

Sequence: MAKRIGKDLSNTFAKLEKLTILAK [STX5]
- protein stability index (treatment: DMSO): 2.77 ± 0.69
- protein stability index (treatment: MLN4924 1 uM, 8 h): 2.77 ± 0.53

Sequence: PRPGTGQSRSFRILAHLTGTEFMQ [PDLIM7]
- protein stability index (treatment: DMSO): 2.47 ± 0.046
- protein stability index (treatment: MLN4924 1 uM, 8 h): 2.83 ± 0.27

Sequence: RDGALLGCSLTADGLPLHFFIQTV [MYORG]
- protein stability index (treatment: DMSO): 2.35 ± 0.31
- protein stability index (treatment: MLN4924 1 uM, 8 h): 2.36 ± 0.52

Sequence: ESEPPAPNIRNMAPNSLSAPTMLH [TRAF3IP2]
- protein stability index (treatment: DMSO): 4.54 ± 0.24
- protein stability index (treatment: MLN4924 1 uM, 8 h): 4.37 ± 0.34

Sequence: NDNSSDLLYDDLYDDDIDDEDEEE [UBE2R2]
- protein stability index (treatment: DMSO): 5.61 ± 0.41
- protein stability index (treatment: MLN4924 1 uM, 8 h): 5.63 ± 0.18

Sequence: FNLTPPICEQAEYHMFQREKVEVQ [KCNAB2]
- protein stability index (treatment: DMSO): 3.72 ± 0.24
- protein stability index (treatment: MLN4924 1 uM, 8 h): 3.88 ± 0.17

Sequence: IHSCFSDVTCFLLPHPGLQVATSP [ATL3]
- protein stability index (treatment: DMSO): 2.34 ± 0.7
- protein stability index (treatment: MLN4924 1 uM, 8 h): 2.29 ± 0.49

Sequence: ENTAETITRVLYEVFIEWGISAKV [ZBED1]
- protein stability index (treatment: DMSO): 2.82 ± 0.088
- protein stability index (treatment: MLN4924 1 uM, 8 h): 2.78 ± 0.72

Sequence: STTTTTHITKTVKGGISETRIEKR [EPB41L3]
- protein stability index (treatment: DMSO): 4.86 ± 0.2
- protein stability index (treatment: MLN4924 1 uM, 8 h): 5.01 ± 0.21

Sequence: QNQNITLDCEGTTNKMKSPETKQR [KMT2E]
- protein stability index (treatment: DMSO): 5.37 ± 0.12
- protein stability index (treatment: MLN4924 1 uM, 8 h): 5.3 ± 0.12

Sequence: FEMLSGFPPFFDDNPFGIYQKILA [PRKX]
- protein stability index (treatment: DMSO): 2.47 ± 0.45
- protein stability index (treatment: MLN4924 1 uM, 8 h): 2.29 ± 0.3

Sequence: AEMPHTETVSPLPSSMDLLIQDSP [NANOGP8]
- protein stability index (treatment: DMSO): 5.09 ± 0.19
- protein stability index (treatment: MLN4924 1 uM, 8 h): 5.32 ± 0.2

Sequence: KGEVPKGSCEDEPMDSTMDDAVAG [ATE1]
- protein stability index (treatment: DMSO): 5.48 ± 0.28
- protein stability index (treatment: MLN4924 1 uM, 8 h): 5.61 ± 0.17

Sequence: NTHVSQVFNLFRTMGLRHLPVVNA [CLCN6]
- protein stability index (treatment: DMSO): 2.57 ± 0.39
- protein stability index (treatment: MLN4924 1 uM, 8 h): 2.12 ± 0.15

Sequence: MEEAAVASVVLPARELQEALPEAP [BCL2L13]
- protein stability index (treatment: DMSO): 5.27 ± 0.15
- protein stability index (treatment: MLN4924 1 uM, 8 h): 5.51 ± 0.069

Sequence: SLPKRLCLVCGDVASGYHYGVASC [ESRRA]
- protein stability index (treatment: DMSO): 2.22 ± 0.28
- protein stability index (treatment: MLN4924 1 uM, 8 h): 2.43 ± 0.48

Sequence: SNISRPRDNPMCLKCDLQERLLCP [M1AP]
- protein stability index (treatment: DMSO): 2.87 ± 0.095
- protein stability index (treatment: MLN4924 1 uM, 8 h): 3.05 ± 0.26

Sequence: RGSETTYESSADIAGDEGTQIPAD [TAF7L]
- protein stability index (treatment: DMSO): 5.58 ± 0.12
- protein stability index (treatment: MLN4924 1 uM, 8 h): 5.62 ± 0.12

Source: the supplement of paper PMC10567573
